Measurements as given in article PMC10042835, “Phytochrome B photobodies are comprised of phytochrome B and its primary and secondary interacting proteins” (Nature Communications, 2023).

Biological target: T1, SBP-fused phyB (SBP-phyB), recombinant full-length phyB (Arabidopsis thaliana, UniProt P14713 1-1172, made in phycocyanobilin-producing LMG194 (chromophore); Pfr or Pr form set by a red or far-red light pulse)
T1 construct: phytochrome B (phyB), Arabidopsis thaliana, full length; pBAD-derived vector; the Pfr and Pr forms are told apart by the assay; also called phytochrome B; Pfr form; source: phycocyanobilin-producing E. coli LMG194, purified (Ni-NTA, Streptavidin sepharose)
T1 sequence (looked up): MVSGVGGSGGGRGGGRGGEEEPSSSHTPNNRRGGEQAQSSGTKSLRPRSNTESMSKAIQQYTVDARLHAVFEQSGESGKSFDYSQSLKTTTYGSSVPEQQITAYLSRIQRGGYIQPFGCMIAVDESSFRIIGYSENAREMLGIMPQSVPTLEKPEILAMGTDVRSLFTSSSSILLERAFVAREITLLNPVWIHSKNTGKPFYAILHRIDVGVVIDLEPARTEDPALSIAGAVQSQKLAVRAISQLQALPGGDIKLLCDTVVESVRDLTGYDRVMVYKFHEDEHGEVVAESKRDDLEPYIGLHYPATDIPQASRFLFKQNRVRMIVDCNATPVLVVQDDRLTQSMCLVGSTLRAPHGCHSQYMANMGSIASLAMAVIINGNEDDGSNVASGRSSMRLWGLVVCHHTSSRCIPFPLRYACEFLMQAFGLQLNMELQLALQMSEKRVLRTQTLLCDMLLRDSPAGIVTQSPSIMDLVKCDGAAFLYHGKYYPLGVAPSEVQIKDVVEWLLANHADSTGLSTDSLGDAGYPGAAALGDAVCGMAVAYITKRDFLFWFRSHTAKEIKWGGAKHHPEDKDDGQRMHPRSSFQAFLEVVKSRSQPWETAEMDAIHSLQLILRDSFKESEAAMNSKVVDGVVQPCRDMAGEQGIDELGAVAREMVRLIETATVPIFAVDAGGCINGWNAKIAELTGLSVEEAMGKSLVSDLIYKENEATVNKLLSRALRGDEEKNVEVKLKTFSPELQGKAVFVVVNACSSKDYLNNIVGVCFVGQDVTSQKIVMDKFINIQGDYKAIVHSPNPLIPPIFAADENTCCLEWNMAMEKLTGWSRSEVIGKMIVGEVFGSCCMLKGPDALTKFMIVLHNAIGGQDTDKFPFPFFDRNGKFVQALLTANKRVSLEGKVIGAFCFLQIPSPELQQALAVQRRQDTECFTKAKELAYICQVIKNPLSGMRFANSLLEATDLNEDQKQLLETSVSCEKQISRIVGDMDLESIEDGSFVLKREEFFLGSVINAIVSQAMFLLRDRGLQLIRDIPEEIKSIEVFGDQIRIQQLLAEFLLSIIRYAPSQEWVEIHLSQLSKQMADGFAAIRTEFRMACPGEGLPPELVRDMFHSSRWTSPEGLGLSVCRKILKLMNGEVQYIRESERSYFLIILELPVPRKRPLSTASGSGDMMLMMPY
Test: pull-down; GST fusions incubated with SBP-phyB in the Pfr form (red light pulse 25 μmol/m2/s, 10 min, before the incubation), glutathione resin; 25 mM HEPES, 150 mM KCl, 1 mM DTT, pH 7.40; green safety light
Settings: both partners purified

B1: GST-fused PIF4 (GST-PIF4) (natural protein, Arabidopsis thaliana, UniProt Q8W2F3 1-430, looked up)
chain: MEHQGWSFEENYSLSTNRRSIRPQDELVELLWRDGQVVLQSQTHREQTQTQKQDHHEEALRSSTFLEDQETVSWIQYPPDEDPFEPDDFSSHFFSTMDPLQRPTSETVKPKSSPEPPQVMVKPKACPDPPPQVMPPPKFRLTNSSSGIRETEMEQYSVTTVGPSHCGSNPSQNDLDVSMSHDRSKNIEEKLNPNASSSSGGSSGCSFGKDIKEMASGRCITTDRKRKRINHTDESVSLSDAIGNKSNQRSGSNRRSRAAEVHNLSERRRRDRINERMKALQELIPHCSKTDKASILDEAIDYLKSLQLQLQVMWMGSGMAAAAASAPMMFPGVQPQQFIRQIQSPVQLPRFPVMDQSAIQNNPGLVCQNPVQNQIISDRFARYIGGFPHMQAATQMQPMEMLRFSSPAGQQSQQPSSVPTKTTDGSRLDH
notes: source: E. coli BL21(DE3)-CodonPlus-RIL, purified (Ni-NTA, glutathione agarose); not shown: GST, N-terminal, kept
Does B1 bind?
Result: binds
